These results are taken from patent US20200360435A1 (MIE UNIVERSITY, published 2020).

In this experiment the target is PE-labeled HLA-A*02:01/Taxp11-19 ([…]) tetramer (human; HTLV-1). Description: tetramer staining of TCR-transduced human PBMCs, flow cytometry. On the technique in general: Flow cytometry measures light scatter and fluorescence of single cells or particles in a stream.

B1: TCR2-2 (TCR, V domains shown)
V domain 1: GAVVSQHPSRVICKSGTSVKIECRSLDFQATTMFWYRQFPKKSLMLMATSNEGSKATYEQGVEKDKFLINHASLTLSTLTVTSAHPEDSSFYICSARAGGDTFGSGTRLTVVE
V domain 2: AQSVTQLDSHVSVSEGTPVLLRCNYSSSYSPSLFWYVQHPNKGLQLLLKYTSAATLVKGINGFEAEFKKSETSFHLTKPSAHMSDAAEYFCVVSVNDYKLSFGAGTTVTVRA
notes: also called TCR having feature (D)
Turning to B1, the “percent TCR-positive (tetramer-positive) CD4-positive cells among transfected cells” value was no less than 5% and the “percent TCR-positive (tetramer-positive) CD8-positive cells among transfected cells” value was no less than 10%.

B2: TCR5-2 (TCR, V domains shown)
V domain 1: GAVVSQHPSRVICKSGTSVKIECRSLDFQATTMFWYRQFPKKSLMLMATSNEGSKATYEQGVEKDKFLINHASLTLSTLTVTSAHPEDSSFYICSAKASEQYFGPGTRLTVTE
V domain 2: SQQGEEDPQALSIQEGENATMNCSYKTSINNLQWYRQNSGRGLVHLILIRSNEREKHSGRLRVTLDTSKKSSSLLITASRAADTASYFCAADNYGQNFVFGPGTRLSVLP
notes: also called TCR having feature (F)
B2: the “percent TCR-positive (tetramer-positive) CD4-positive cells among transfected cells” value is no less than 5% and the “percent TCR-positive (tetramer-positive) CD8-positive cells among transfected cells” value is no less than 10%.

B3: TCR2-1 (TCR, V domains shown)
V domain 1: EAQVTQNPRYLITVTGKKLTVTCSQNMNHEYMSWYRQDPGLGLRQIYYSMNVEVTDKGDVPEGYKVSRKEKRNFPLILESPSPNQTSLYFCASSPGLAGGVEQFFGPGTRLTVLE
V domain 2: RKEVEQDPGPFNVPEGATVAFNCTYSNSASQSFFWYRQDCRKEPKLLMSVYSSGNEDGRFTAQLNRASQYISLLIRDSKLSDSATYLCVVNIGFGNVLHCGSGTQVIVLP
notes: also called TCR having feature (C)
B3: the “percent TCR-positive (tetramer-positive) CD4-positive cells among transfected cells” value is no less than 5% and the “percent TCR-positive (tetramer-positive) CD8-positive cells among transfected cells” value is no less than 10%.

B4: TCR5-3 (TCR, V domains shown)
V domain 1: GVTQTPKFRVLKTGQSMTLLCAQDMNHEYMYWYRQDPGMGLRLIHYSVGEGTTAKGEVPDGYNVSRLKKQNFLLGLESAAPSQTSVYFCASSYSRDRGWSEAFFGQGTRLTVVE
V domain 2: AQKVTQAQTEISVVEKEDVTLDCVYETRDTTYYLFWYKQPPSGELVFLIRRNSFDEQNEISGRYSWNFQKSTSSFNFTITASQVVDSAVYFCALNVMNRDDKIIFGKGTRLHILP
notes: also called TCR having feature (G)
As to B4, the “percent TCR-positive (tetramer-positive) CD4-positive cells among transfected cells” value is no less than 5% and the “percent TCR-positive (tetramer-positive) CD8-positive cells among transfected cells” value is no less than 10%.

B5: TCR1-2 (TCR, V domains shown)
V domain 1: GAVVSQHPSRVICKSGTSVKIECRSLDFQATTMFWYRQFPKKSLMLMATSNEGSKATYEQGVEKDKFLINHASLTLSTLTVTSAHPEDSSFYICSARYGEVAFFGQGTRLTVVE
V domain 2: GENVEQHPSTLSVQEGDSAVIKCTYSDSASNYFPWYKQELGKGPQLIIDIRSNVGEKKDQRIAVTLNKTAKHFSLHITETQPEDSAVYFCAASRDNNDMRFGAGTRLTVKP
notes: also called TCR having feature (B)
With B5, the “percent TCR-positive (tetramer-positive) CD4-positive cells among transfected cells” value was no less than 5% and the “percent TCR-positive (tetramer-positive) CD8-positive cells among transfected cells” value was no less than 10%.
